The text below walks through data of patent US20190062398A1 (published 2019).

What all share (experiment): cytokine release
The target of test [1] is T1, Human papillomavirus type 16 E5 protein peptide on HLA-A*02:01 (human).
T1 peptide: YIIFVYIPL

Test [2] concerns the target T2, Human papillomavirus type 16 E6 protein peptide on HLA-A*02:01 (human).
T2 peptide: TIHDIILECV

The target in test [3] is T3, Human papillomavirus type 16 E7 protein peptide on HLA-A*02:01 (human).
T3 peptide: TLGIVCPI

B1: T2 (TCR, V domains shown)
Valpha: QKEVEQNSGPLSVPEGAIASLNCTYSDRGSQSFFWYRQYSGKSPELIMSIYSNGDKEDGRFTAQLNKASQYVSLLIRDSQPSDSATYLCAVNVDFNKFYFGSGTKLNVKP
Vbeta: DTEVTQTPKHLVMGMTNKKSLKCEQHMGHRAMYWYKQKAKKPPELMFVYSYEKLSINESVPSRFSPECPNSSLLNLHLHALQPEDSALYLCASSQDWNNEQFFGPGTRLTVL
Turning to B1, in test [1], the binding result is reported as “recognises”.

B2: T3 (TCR, V domains shown)
Valpha: EDQVTQSPEALRLQEGESSSLNCSYTVSGLRGLFWYRQDPGKGPEFLFTLYSAGEEKEKERLKATLTKKESFLHITAPKPEDSATYLCAVQANRGSTLGRLYFGRGTQLTVWP
Vbeta: DVKVTQSSRYLVKRTGEKVFLECVQDMDHENMFWYRQDPGLGLRLIYFSYDVKMKEKGDIPEGYSVSREKKERFSLILESASTNQTSMYLCASSLWGRLAKNIQYFGAGTRLSVL
B2: in test [2], the binding result is listed as “recognises”.

B3: T5b (TCR, V domains shown)
Valpha: SQQGEEDPQALSIQEGENATMNCSYKTSINNLQWYRQNSGRGLVHLILIRSNEREKHSGRLRVTLDTSKKSSSLLITASRAADTASYFCATVSTDSWGKLQFGAGTQVVVTP
Vbeta: DVKVTQSSRYLVKRTGEKVFLECVQDMDHENMFWYRQDPGLGLRLIYFSYDVKMKEKGDIPEGYSVSREKKERFSLILESASTNQTSMYLCASSLWGRAGKDTQYFGPGTRLTVL
B3: in test [2], the binding result is recorded as “recognises”.

B4: T4 (TCR, V domains shown)
Valpha: KQEVTQIPAALSVPEGENLVLNCSFTDSAIYNLQWFRQDPGKGLTSLLLIQSSQREQTSGRLNASLDKSSGRSTLYIAASQPGDSATYLCAVRETSGSRLTFGEGTQLTVNP
Vbeta: DVKVTQSSRYLVKRTGEKVFLECVQDMDHENMFWYRQDPGLGLRLIYFSYDVKMKEKGDIPEGYSVSREKKERFSLILESASTNQTSMYLCASSFWGRSTDTQYFGPGTRLTVL
As for B4, in test [2], the binding result is on record as “recognises”.

B5: T5a (TCR, V domains shown)
Valpha: SQQGEEDPQALSIQEGENATMNCSYKTSINNLQWYRQNSGRGLVHLILIRSNEREKHSGRLRVTLDTSKKSSSLLITASRAADTASYFCATVSTDSWGKLQFGAGTQVVVTP
Vbeta: DAGITQSPRHKVTETGTPVTLRCHQTENHRYMYWYRQDPGHGLRLIHYSYGVKDTDKGEVSDGYSVSRSKTEDFLLTLESATSSQTSVYFCAISDSNGINIQYFGAGTRLSVL
As to B5, in test [2], the binding result is given as “recognises”.

B6: T7 (TCR, V domains shown)
Valpha: QQPVQSPQAVILREGEDAVINCSSSKALYSVHWYRQKHGEAPVFLMILLKGGEQKGHEKISASFNEKKQQSSLYLTASQLSYSGTYFCGTGTDSWGKLQFGAGTQVVVTP
Vbeta: DAGVIQSPRHEVTEMGQEVTLRCKPISGHDYLFWYRQTMMRGLELLIYFNNNVPIDDSGMPEDRFSAKMPNASFSTLKIQPSEPRDSAVYFCASSPGLAGGEQFFGPGTRLTVL
Turning to B6, the binding result in test [3] is “recognises”.
